Experimental data: patent US20150258192A1, “COMPOSITIONS AND METHODS FOR PREVENTING OR TREATING CHRONIC LUNG ALLOGRAFT DYSFUNCTION (CLAD) AND IDIOPATHIC PULMONARY FIBROSIS (IPF)” (priority 2014, published 2015)
No end group written: not given here.

Experiments:
Assay in all cases: Kinase Profiling Assay
Assay type in all cases: biochemical
Settings in all cases: peptide 100 μM
[1] = biological target: EGFR(T790M, L858R)(h) (Homo sapiens, UniProt P00533, L858R/T790M)
In short: (§1)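 In this 266-kinase specificity panel, every measurement was duplicated. Transfer of labeled phosphate from ATP to a cationic substrate was quantified after the substrate adhered to an anionic filter membrane and was scintillation-counted, then related to a full-activity control.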

[2] = biological target: T1, PKG1α(h) (Homo sapiens, UniProt Q13976)
T1 sequence (Q13976 1-671): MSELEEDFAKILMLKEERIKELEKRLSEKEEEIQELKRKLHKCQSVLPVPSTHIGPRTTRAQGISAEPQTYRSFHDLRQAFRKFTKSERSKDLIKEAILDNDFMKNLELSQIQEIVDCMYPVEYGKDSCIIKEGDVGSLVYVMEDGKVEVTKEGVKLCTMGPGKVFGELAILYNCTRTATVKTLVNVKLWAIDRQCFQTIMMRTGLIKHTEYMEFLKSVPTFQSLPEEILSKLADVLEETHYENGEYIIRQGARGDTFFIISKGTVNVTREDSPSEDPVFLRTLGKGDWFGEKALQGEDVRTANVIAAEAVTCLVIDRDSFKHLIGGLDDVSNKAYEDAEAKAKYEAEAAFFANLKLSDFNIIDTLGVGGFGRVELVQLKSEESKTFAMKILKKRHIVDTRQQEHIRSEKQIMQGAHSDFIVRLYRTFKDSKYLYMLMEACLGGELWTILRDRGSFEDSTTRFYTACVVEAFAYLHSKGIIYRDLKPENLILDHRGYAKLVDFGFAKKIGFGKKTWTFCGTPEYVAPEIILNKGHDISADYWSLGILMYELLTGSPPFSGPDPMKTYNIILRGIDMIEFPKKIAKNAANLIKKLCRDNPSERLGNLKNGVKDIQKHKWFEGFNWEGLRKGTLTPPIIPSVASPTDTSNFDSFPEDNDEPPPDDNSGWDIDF
In short: as §1

[3] = biological target: T2, DCAMKL2(h) (Homo sapiens, UniProt Q8N568)
T2 sequence (Q8N568 1-766): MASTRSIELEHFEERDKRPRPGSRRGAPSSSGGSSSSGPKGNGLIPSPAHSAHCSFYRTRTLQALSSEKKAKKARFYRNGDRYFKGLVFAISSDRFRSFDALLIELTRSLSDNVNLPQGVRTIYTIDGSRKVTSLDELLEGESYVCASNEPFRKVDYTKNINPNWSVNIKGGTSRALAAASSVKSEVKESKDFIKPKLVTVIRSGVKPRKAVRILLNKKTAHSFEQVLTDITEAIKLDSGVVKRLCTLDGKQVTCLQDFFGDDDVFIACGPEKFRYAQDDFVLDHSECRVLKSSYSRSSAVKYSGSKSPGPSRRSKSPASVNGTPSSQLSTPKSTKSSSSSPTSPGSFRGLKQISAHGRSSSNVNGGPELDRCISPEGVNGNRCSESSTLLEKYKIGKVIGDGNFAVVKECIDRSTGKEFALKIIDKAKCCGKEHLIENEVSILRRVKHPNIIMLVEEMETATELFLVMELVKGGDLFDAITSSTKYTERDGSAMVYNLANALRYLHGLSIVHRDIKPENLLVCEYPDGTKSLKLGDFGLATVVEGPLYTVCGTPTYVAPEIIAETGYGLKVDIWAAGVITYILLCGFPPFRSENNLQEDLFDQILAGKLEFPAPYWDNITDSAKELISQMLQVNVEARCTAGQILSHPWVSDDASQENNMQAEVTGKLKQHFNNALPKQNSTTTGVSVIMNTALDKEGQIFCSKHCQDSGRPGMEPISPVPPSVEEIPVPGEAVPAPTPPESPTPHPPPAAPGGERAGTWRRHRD
In short: as §1

[4] = biological target: eEF-2K(h) (Homo sapiens, UniProt O00418)
In short: as §1

[5] = biological target: T3, HIPK1(h) (Homo sapiens, UniProt Q86Z02)
T3 construct: purchased Millipore
In short: as §1

[6] = biological target: T4, MEK1(h) (Homo sapiens, UniProt Q02750)
T4 construct: purchased Millipore
In short: as §1

[7] = biological target: Pim-3(h) (Homo sapiens, UniProt Q86V86)
In short: as §1

[8] = biological target: T5, SRPK2(h) (Homo sapiens, UniProt P78362)
T5 construct: purchased Millipore
In short: as §1

[9] = biological target: T6, DMPK(h) (Homo sapiens, UniProt Q09013)
T6 sequence (Q09013 1-629): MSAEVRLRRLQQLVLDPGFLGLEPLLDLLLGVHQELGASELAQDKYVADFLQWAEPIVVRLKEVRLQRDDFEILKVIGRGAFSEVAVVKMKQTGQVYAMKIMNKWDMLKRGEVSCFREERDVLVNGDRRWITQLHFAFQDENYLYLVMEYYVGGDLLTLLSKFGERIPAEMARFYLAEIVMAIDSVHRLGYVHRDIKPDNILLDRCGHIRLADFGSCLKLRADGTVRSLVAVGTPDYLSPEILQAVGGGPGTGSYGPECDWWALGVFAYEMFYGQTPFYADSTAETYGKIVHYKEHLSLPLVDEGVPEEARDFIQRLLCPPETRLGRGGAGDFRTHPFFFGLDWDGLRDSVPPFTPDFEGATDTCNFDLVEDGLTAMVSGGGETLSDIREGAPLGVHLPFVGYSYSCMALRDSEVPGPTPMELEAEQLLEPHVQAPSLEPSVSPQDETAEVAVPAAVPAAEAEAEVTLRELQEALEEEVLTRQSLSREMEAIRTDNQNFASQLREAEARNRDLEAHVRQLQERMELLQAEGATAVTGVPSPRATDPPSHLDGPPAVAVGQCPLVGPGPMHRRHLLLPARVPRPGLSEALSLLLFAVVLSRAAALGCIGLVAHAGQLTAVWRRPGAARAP
In short: as §1

[10] = biological target: CLK3(h) (Homo sapiens, UniProt P49761)
In short: as §1

[11] = biological target: Abl(T315I)(h) (Homo sapiens, UniProt P00519, T315I)
In short: as §1

T3 sequence (Q86Z02 whole entry): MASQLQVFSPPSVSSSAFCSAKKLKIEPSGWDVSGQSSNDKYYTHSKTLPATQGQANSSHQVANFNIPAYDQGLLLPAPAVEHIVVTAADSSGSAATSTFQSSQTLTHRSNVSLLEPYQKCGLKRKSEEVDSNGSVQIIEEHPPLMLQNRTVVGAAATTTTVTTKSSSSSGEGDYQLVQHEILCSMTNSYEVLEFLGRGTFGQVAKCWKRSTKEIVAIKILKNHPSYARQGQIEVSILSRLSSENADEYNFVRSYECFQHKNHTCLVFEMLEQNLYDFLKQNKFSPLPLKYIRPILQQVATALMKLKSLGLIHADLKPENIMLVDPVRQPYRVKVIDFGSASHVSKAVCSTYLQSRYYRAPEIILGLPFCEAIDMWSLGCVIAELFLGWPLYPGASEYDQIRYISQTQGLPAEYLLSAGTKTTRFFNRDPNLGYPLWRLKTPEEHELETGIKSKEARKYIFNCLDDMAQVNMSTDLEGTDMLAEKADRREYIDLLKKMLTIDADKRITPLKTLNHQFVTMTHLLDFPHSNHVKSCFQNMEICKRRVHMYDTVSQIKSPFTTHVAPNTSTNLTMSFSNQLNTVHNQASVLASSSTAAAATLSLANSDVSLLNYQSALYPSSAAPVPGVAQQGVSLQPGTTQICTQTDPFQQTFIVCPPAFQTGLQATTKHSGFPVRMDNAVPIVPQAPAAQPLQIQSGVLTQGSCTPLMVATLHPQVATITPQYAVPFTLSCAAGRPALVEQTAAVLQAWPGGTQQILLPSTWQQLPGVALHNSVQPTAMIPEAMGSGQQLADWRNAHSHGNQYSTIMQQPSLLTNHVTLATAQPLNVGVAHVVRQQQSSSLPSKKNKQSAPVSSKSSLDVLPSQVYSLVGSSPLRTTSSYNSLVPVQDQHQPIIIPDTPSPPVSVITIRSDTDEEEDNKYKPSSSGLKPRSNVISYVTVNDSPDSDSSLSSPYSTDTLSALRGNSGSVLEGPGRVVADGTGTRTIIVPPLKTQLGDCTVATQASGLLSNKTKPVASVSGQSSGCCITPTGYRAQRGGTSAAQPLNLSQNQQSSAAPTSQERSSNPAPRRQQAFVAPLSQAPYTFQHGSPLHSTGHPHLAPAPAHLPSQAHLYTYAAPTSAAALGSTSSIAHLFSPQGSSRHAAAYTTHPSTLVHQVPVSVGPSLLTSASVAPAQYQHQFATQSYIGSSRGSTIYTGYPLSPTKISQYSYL
CLK3(h), sequence (P49761 whole entry): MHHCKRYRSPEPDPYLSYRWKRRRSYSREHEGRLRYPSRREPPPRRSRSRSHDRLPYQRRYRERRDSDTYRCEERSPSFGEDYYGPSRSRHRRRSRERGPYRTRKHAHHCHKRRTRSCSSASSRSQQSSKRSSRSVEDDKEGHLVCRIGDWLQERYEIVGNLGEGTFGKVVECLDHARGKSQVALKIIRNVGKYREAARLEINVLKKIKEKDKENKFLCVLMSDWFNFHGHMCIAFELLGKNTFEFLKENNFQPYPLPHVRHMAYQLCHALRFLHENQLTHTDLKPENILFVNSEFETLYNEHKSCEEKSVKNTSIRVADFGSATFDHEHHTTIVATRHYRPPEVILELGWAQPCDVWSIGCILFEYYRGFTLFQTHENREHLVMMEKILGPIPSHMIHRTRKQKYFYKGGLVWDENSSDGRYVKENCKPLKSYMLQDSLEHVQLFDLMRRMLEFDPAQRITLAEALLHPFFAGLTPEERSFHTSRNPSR
T5 sequence (P78362 whole entry): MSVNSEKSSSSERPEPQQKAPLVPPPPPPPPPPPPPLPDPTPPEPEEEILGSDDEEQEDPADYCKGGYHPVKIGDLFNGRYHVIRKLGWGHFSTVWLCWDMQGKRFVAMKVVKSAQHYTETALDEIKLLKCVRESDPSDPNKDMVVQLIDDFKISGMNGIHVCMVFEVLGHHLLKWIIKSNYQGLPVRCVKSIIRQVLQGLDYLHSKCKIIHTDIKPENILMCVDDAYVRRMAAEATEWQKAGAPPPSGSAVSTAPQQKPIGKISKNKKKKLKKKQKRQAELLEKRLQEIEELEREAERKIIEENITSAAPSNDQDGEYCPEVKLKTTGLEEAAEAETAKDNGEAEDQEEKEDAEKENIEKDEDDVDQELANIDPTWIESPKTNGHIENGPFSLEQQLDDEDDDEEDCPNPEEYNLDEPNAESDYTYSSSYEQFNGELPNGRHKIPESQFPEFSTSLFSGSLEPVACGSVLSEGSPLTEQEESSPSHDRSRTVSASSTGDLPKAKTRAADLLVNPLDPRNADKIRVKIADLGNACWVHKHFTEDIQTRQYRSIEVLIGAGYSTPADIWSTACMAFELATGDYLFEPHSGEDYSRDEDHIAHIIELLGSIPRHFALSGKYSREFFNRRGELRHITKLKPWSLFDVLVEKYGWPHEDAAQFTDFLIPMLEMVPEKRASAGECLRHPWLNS

Row | Sequence | % activity [1] | % activity [2] | % activity [3] | % activity [4] | % activity [5] | % activity [6] | % activity [7] | % activity [8] | % activity [9] | % activity [10] | % activity [11]
1 | KAFAKLAARLYRKALARQLGVAA [MMI-0400] | 78% | 58% | 70% | 43% | 91% | 77% | 80% | 97% | 54% | 84% | 
2 | FAKLAARLYRKALARQLGVAA [MMI-0300] | 85% | 64% | 81% | 91% | 74% | 77% | 80% |  | 59% | 61% | 97%
3 | YARAAARQARAKALARQLGVAA [MMI-0100] |  | 82% | 146% |  | 94% |  |  | 92% |  | 108% | 98%
4 | HRRIKAWLKKIKALARQLGVAA (Mammal) [MMI-0500] | 53% | 25% | 56% | 43% | 47% | 21% | 37% | 80% | 12% | 76% | 16%
5 | YARAAARQARAKALNRQLGVA (Mammal) [MMI-0200] | 108% | 70% | 131% |  |  |  | 94% | 100% | 66% | 76% | 108%
